Test results taken from the nanobody polyreactivity screen of Harvey et al. (2022).

Assay: yeast display, Sf9 membrane polyspecificity reagent, FACS + sequencing; frameworks hold sequencing errors
Outline: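 Synthetic nanobody libraries on Saccharomyces cerevisiae BJ5465 were galactose-induced for 36–48 hours, stained 1 hour at 4 °C with 10% biotinylated, detergent-solubilized Sf9 membrane reagent and enriched on streptavidin microbeads. FACS then separated cells into low and high (top ~1%) gates by anti-HA (expression) and streptavidin (reagent binding) fluorescence. Genes were colony-PCR amplified, MiSeq 2 × 250 sequenced and CDR-length filtered. A clone's polyreactivity label is that of its gate of origin.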

QGQLVESGGRLVQAGVSLRLSCAASGFIFPKYAMGWYRQAPGKERELVAVITWRSGSTYYADSVKGRFTISRDNAKNTVYLQMNSLKTEETADYYCNARRSSGRYSKMGYWGQGTQVTVSS
polyreactivity (PSR sort gate): high polyreactivity

QVQLVESGGGLVQAGGSLRLSCAASGRTFRTNAMGWYRQAPGKERELVAAISTGGGIANYADSVKGRCTISRDNAKNTVYLQMNSLKPEDTAVYYCNADIYTWFQIGGYQYDYWGQGTQVTVSS
polyreactivity (PSR sort gate): low polyreactivity

QVQLVESGGGLVQAGGSLRLSCAASGRTFRLYALGWYRQAPGKERELVAAITRGGRTNYADSVTGRFTISRDNAKNTVYLQMNSLKPEDTAVYYCAARYVERHTDYYYWGQGTQVTVSS
polyreactivity (PSR sort gate): low polyreactivity

QVQLVESGGGLVQAGGSLRLSCAASGYVMGWYRQAPGKEREMVAAITRGTSTYYADSVKGRFTISRDNAKNTVYLQLNSLKPEDTAVYFCADRHNTGSSRHYGYWGQGTQVTVSS
polyreactivity (PSR sort gate): low polyreactivity

QVQLVESGGGLVQAGGSLRLSCAASGFILYYYAMGWYRQAPGKERELVAAISWSGDSTYYADSVKGRFTISRDNAKNTVYLQMNSLKPEDTAVYYCAATWQLTHRYYWGQGTQVTVSS
polyreactivity (PSR sort gate): low polyreactivity

QVQLVESGGGLVQAGGRLRLSCAASGSIFHYNAMGWYRQAPGKESELVAAITTSGGSTYYADSVKGRFTISLDNAKNSVYLQMNSLKPEDTAVYYCNVVTRYYTMEYWGQGTQVTVSS
polyreactivity (PSR sort gate): high polyreactivity

QVQLVESGGGLVQAGGSLRLSCAASGYIFPGNAMGWYRQAPGKERELVATISGSAGSTSYADSVKGRFTISRDNAKNTVYLQMNSLKPEDTAVYYCNKAYSYSWGDLDYWGQGTQVTVSS
polyreactivity (PSR sort gate): high polyreactivity

QVQLVESGGGIVQAGGSLRLSCAASGRTFGYYAMRWYRQAPGKERELVAAIYWSGGSTRYADSVKGRFTISRDNAKNTVYLQMNSLNPDDTAVYYCAADSWYSFAGVYRVYGEDYWGQGTEVTVSS
polyreactivity (PSR sort gate): low polyreactivity

QVQLVESGGGLVQAGGSLRLSCAASGRTFDVYAMGWYRPAPGKERELVATIRSDGSTTYADSVKGRFTISRDNAKNTDYLQLNSLKPEDTAVYYCAAERVGVFFRYDYWGQGTQVTVSS
polyreactivity (PSR sort gate): low polyreactivity

QVQLVESGGGLVQAGGSLRLSCAASGFILPNYTMGWYRQAPGKERELVAAISRGGSTNYADSVKGRFTISRDNAKNTVYLQMNSLKPEDTAVYYCAVDAWTGESYWEHYYWGQGTQVTVSS
polyreactivity (PSR sort gate): low polyreactivity

QVQLVESGGGLVQAGGSLRLSCAASGSIYSYTMGWYRQAPGKEREFVAAITYSGDSTYYADSVKGRFTISRDNEKNTVYLQMNSLTPEDTAVYDCAAAGGRGSYYRLDYWGQGTQVTVSS
polyreactivity (PSR sort gate): low polyreactivity

QVQLVESGGGLVQAGGSLRLSCAASGFIFSTNAMGWYRQAPGKERELVAAISASGGITYYADSVKGRFTISRDNAKNTVYLQMNSLKPEDTAVYYCAVYYYSPGNNIYGYWGQGTQVTVSS
polyreactivity (PSR sort gate): high polyreactivity

QVQLVESGGGLVQEGGSLRLICEASGFIFYNYAMGWYRQAPGKERELVAAISSSGGRTYYADSVKGRFTISRDNAKNTVYLQMNRLKREDTAVYYCNARVNYKGYDYWGQGTQVTVSS
polyreactivity (PSR sort gate): high polyreactivity

QVQLVESGGGLVQAGGSLRLSCAASGSIFYHYVMGWYRQAPGKERELVAAISSSGRTYYADSVKGRFTISRDNAKNTVYLQMNSLKPEDTAVYYCAADVHFGVGMDYWGQGTQVTVSS
polyreactivity (PSR sort gate): low polyreactivity

QVQLVESAGGLVQAGGSLRIRCAASVSTFGVYALGWYRQAPGKERELVAAISSSTGSTYYADSVKGRFTISRDNAKNTVYLQMNSLKPEDTGVYYCAAAGYGKVRGDYWGLGTQVTVSS
polyreactivity (PSR sort gate): low polyreactivity

QVQLVESVGGLVQAGGSLRLSCAASGSIFYYNTMGWYRQAPGKVRELVATISSDGGTNYADSVKGRFTISRDNAKNTVYLQMNSLKPEDTAVYYCAAAVSPYSYWPGFDYWGQGTQVTVSS
polyreactivity (PSR sort gate): low polyreactivity

QVQLVESGGGLVQAGGSLRLSCAASGRILRSNAMGWYRQAPVKERELVATISQRGGSTYADSVKGRFTISRDNAKNTVYLQMNSLKPEDTAVYYCNVGVPIGGFMSYWGGDYWGQGTQVTVSS
polyreactivity (PSR sort gate): low polyreactivity

QVQLVESGRGLFQAGGSLRLSCAASGSTFSGYAMGWYRPAPGKERELVATITRRGGNTYYADSVKGRFTISRDNAKNTVYLQMNSLKPEDTAVYYCSKDGRVHSPYDYWGQGTQVTVSS
polyreactivity (PSR sort gate): low polyreactivity

QVQLVESGGGLVQAGGSLRLSCAASGSTFTYYAMGWYRQAPGKERELVAAITRRGGSTYYADSVKGRFTISRDNAKNTVYLQMNSLIPEDTAVYYCAKSTQIRAYIWDPYRISTYGYWGQGTQVTVSS
polyreactivity (PSR sort gate): high polyreactivity

QVQLVESGGGLVQAGGSLRLSCAASGFIFPYYAMGWYRQAPGKERELVAAITRSGGRTYYADSVKGRFTISRDNAKNTVYLQMNSLKPEDTAVYYCAVRYIRYRNLKYDFWGQGTHVTVSS
polyreactivity (PSR sort gate): high polyreactivity

QVQLVESGGGLVQAGGSLRLSCAASGSIFSIYAMGWYRQAPGTERELVASINSGDSTYYADSVKGRFTISRDNAKNTVYVQMNSLKPDDTAVYNCAATLVTVPLYRFDYWGQGTQVTVSS
polyreactivity (PSR sort gate): low polyreactivity

QVQLVESGGGLVQAGGSLRLSCAASGRIFTVYAMGWYRQAPGKERELVAAISRGGSTYADSVKGRFTISRDNAKNTVYLQMNSLKPEDTAVYYCAAVNFRKGEDYWGQGTQVTVSS
polyreactivity (PSR sort gate): high polyreactivity

QVQLQESGGGLVQVGGSLRLTCAASGTIFIYGFLGWNRQAPGKERELVASINLGGITNYADSVKGRFTISRDNAKNTVYLQMISLKPEDTAVYYCAAYVVTGQNYGYWGQGTQVTVSS
polyreactivity (PSR sort gate): low polyreactivity

QVQLVESGGGLVQAGGSLRLSCAASGSIFHSYAMGWYRQAPGKETELVASITASGDSTYYADSVKGRFTISRDNAKNTVYLQMNSLKPEDTAVYYCNTQAVYGGGEGGYDYWGQCTQVTVSS
polyreactivity (PSR sort gate): low polyreactivity

QVQLVESGGGLVQAVGSLRLSCAASGLIFWRNAMGWYRQAPGKERELVAAITYSGSRTYYADSVKGRFTISRDNAKNTVYLQMNSLKPEDTAVYYCNADYYWYPYEDDDWGQGTQVTVSS
polyreactivity (PSR sort gate): low polyreactivity

QVQLVESGGGLVQAGGSLRLSCAASGSTIYNNAMGWYRQAPGKERELVAAITRTGGRTYYADSVKGRFTITRDNAKNTVYLQMNSLKREDTAVYYCAATYPSGRDLSFDYWGQGTQVTVSS
polyreactivity (PSR sort gate): high polyreactivity

QVQLVESGGGLVQAGGSLRLSCAASGFIFWLYAMGWYRQAPGKEREVVAGITRGGGSTYYADSVKGRFTISRDNAKNTVYLQMNSLKPEDTAVYYCAADAWSSYLDRPFDYWGQGTQVTVSS
polyreactivity (PSR sort gate): high polyreactivity

QVQLVESGGGLVQAGGSLSLSCAASGSILPYNTMGWDRQAPGKERELVAAITSGVGSTYADSVKGRFTISRDNAKNTVYLQMNSLKPEDTAVYYCNASESAIPIGDLGDYWGQGTQVTVSS
polyreactivity (PSR sort gate): low polyreactivity

QAQLQESGGSLVQAGGGLRLSCAASGYISVGSVMGWYRQAPSKERELVASIDQGANTNYADSVKGRFTISRDNAKNYVYLQMNSLKPEDTAVYYCATETTYILNYWGQGTQVTVSS
polyreactivity (PSR sort gate): low polyreactivity

QVQLVDSGGGLVQAGGSLRLSCAASGSIFVFYDMGWYSQAPGKEREMVATISSGGGGTYYTDSVKGRFTISRDNAKNTVYLQMNSLKPEDTAVYYCAAEGDKYGKGYGYWGQGTQVTVSS
polyreactivity (PSR sort gate): low polyreactivity

QVQLVESGGGLVQAGGSLRLRCAASGYNIQHYAMGWYRQAPGKERELVAAITSGGSTTYADSVKGRFTISRDNAKNTVYLQMNSLKPEDTAVYYCKALRRARYTRKGYEYWGQGTQVTVSS
polyreactivity (PSR sort gate): high polyreactivity

QVQLVESGGGLVHAGGSLRLSCAASGITFSDNTMGWYRQAPGKERELVAAISWRGGRTYYADSVKGRFTISRDYAKNTVSLQMNSLKPEDTAVYYCNAVTSSKARSSSYDYWGQGTQVTVSS
polyreactivity (PSR sort gate): high polyreactivity

QVQLVESGGGLVQAGGSLRLSCAASGRIFRWYAMGWYRQAPGKERELVAAISYSGGSTYYADSVKGRFTISRDNAKNTVYLQMNSLKPEDTAVYYCAAATYYKFDYWGQGTQVTVSS
polyreactivity (PSR sort gate): high polyreactivity

QVQLVESGGGLVKAGGSLRLSCAASGLIFIAYDMGWYRQAPGKERELVAAISSSGGSTYYADSVKGRFTISRDNAKNTVYFQMNSLKPEDTAVYYCASDTTKLQGVEGDYWGQGTQGTVSS
polyreactivity (PSR sort gate): low polyreactivity

QVQRVESGGGLVQAGGSLRLSCAASGRILYWYAMGWYRQAPGKERELVAGIDWSGGSTYYADSVKGRFTISRDKAKTTVYLQMNSLKPEDTAVYYCNAAQNRGRGSHRGESTYYYSGQGTQVTVSS
polyreactivity (PSR sort gate): low polyreactivity

QVQLVESGGGLVQAGGSLRLSCAASGRTFFDYAMGWYRQAPGKERELVATIRGGGSTNYADSVKGRFTISRDNAKNTVYLQMNSLKPEDTAVYYCAVRRRWYFPQYRSGRSLDYWGQGTQVTVSS
polyreactivity (PSR sort gate): high polyreactivity

QVQLVESGGGLVQAGGSLRLSCASSGPIIFAYAMGWYRQAQGKEREFVAAISDNDGSTYYADSVKGRFTISRDNAKNSVYLQMNSLKPEDTAVYYCNADLGYVYDYWGQGTQVTVSS
polyreactivity (PSR sort gate): low polyreactivity

QVQLVESGGGLVQAGGSLRLSCAASGRTFYNNAMGWYRPAPGKERELVAVISGRGGSTYYADSVKGRFTISRDNAKNTVYLQMNSLKPEDTAVYYCAAGYTRPWRFTYYYWGQGTQVTVSS
polyreactivity (PSR sort gate): high polyreactivity

QVQLVDSGGGLVQAGGSLRLSCAASGSTFISYAMGWYRQAPGKERELVAAISRRGDSTYYADSVKGRFTISRDNAKNNVYLEMNSLKPEDTAVYYCAADVSGDKGSIHMNYWGQGTLVTVSS
polyreactivity (PSR sort gate): low polyreactivity

QVQLVESGGGLVQAGGSLRLSCAASGSTSRYYDMGWYRQAPGKERELVAAITWSGGTTYYADSVKGRFTISRDNAKNTVYLQMDSLKPEDTAVYYCAVDSQTANDYDYWGQGTQVTVSS
polyreactivity (PSR sort gate): low polyreactivity

QVQLVESGGGLVQAGGSLRLSCAASGSTFKHYAMGWYRQAPGKERELVAAISERGGSTYYADSVKGRFTISRDNAKNTVYLQMNSLKPEDTAVYYCARRVSRFSKFGYWGQGTQVTVSS
polyreactivity (PSR sort gate): high polyreactivity

QVQLVDSGGGLVQAGGSLRLSCPASGGIFGEYAMGWYRPAPGKEMELVAAINWSGGSTYYADSVKGRFTISRDNAKNTVYLQMNSLKPEDTAVYYCAADRGYPGNVDYWGQGSQVTVSS
polyreactivity (PSR sort gate): low polyreactivity

QVQLVESGGGLVQAGGSLRLSCAASGRTFERNALGWYRQAPGKEREFVAAITEIGGSTYYADSVKGRFTISRDNAMNTVYLQMNSLKPEDTAVYYCAKDGTYSPYDYWGQGTQVTVSS
polyreactivity (PSR sort gate): low polyreactivity
